Assay results: patent US20170281764A1 (JN BIOSCIENCES, published 2017)
Where a chain is given by its changes, count along the chain named. Numbers in names are those of the source.

Tests used:
[1] = target: T1, His-tagged soluble recombinant human TIGIT (Cat # TIT-H52H3; Acro Biosystems) (human, UniProt Q495A1 22-141); test: SPR (BioRad ProteOn XPR36), antibody captured by anti-human IgG, soluble TIGIT as analyte, 25 °C, 1:1 model
T1 construct: Bought reagent; not shown: His tag
T1 sequence (looked up): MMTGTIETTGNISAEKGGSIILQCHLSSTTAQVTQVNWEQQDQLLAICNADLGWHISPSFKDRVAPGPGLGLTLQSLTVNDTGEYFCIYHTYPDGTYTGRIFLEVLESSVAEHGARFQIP
Experimental: Biosensor studies for HuTIG1-IgG1.AA were run on a BioRad ProteOn XPR36 system in 10 mM HEPES, 150 mM NaCl, pH 7.4, 0.005% Tween-20 and 0.2 mg/ml BSA at 25° C. HuTIG1-IgG1.AA was diluted to 3.7, 1.2 and 0.4 nM and captured for 5 minutes onto a GLM sensor chip coated with ˜10,000 RU of GE's anti-human IgG antibody. His-tagged soluble recombinant human TIGIT (Cat # TIT-H52H3; Acro Biosystems, Newark, Del.) was tested at 100 nM as the highest concentration in a 3-fold dilution series down to 1.2 nM. The data from the three different density antibody surfaces were globally fit to a 1:1 interaction model using a local Rmax.

[2] = target: T2, human TIGIT on cells (Jurkat-TIGIT cells; human T cells, NK cells and other blood cells) (human, UniProt Q495A1 22-244); test: cell-based or functional assay
T2 sequence: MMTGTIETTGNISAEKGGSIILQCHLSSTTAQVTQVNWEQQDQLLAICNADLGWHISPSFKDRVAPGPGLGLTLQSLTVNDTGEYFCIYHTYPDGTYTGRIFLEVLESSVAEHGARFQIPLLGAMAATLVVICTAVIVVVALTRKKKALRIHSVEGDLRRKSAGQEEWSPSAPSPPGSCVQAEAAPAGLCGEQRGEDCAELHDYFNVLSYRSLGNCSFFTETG

[3] = target: T3, extracellular region of human TIGIT fused to FLAG and GPI (hTIGIT-GPI), on the surface of NS0 cells (human); test: flow cytometry on NS0-hTIGIT cells
T3 construct: The GPI signal is processed when the anchor is attached; also called NS0-hTIGIT cells
T3 chain: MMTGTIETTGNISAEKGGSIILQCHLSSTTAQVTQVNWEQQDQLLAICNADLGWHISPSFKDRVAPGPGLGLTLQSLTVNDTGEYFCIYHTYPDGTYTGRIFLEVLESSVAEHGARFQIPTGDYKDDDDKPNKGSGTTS
Experimental: Binding of HuTIG1-IgG1.AA to human TIGIT was also examined by flow cytometry. NS0-hTIGIT cells (8×10⁵ cells) were incubated in 160 μl of FACS Buffer (PBS containing 0.5% bovine serum albumin and 0.05% sodium azide) in the presence (or absence) of various concentrations of HuTIG1-IgG1.AA, starting at 10 μg/ml and serial 2-fold dilutions, for 20 min at 4° C. After washing with FACS Buffer, HuTIG1-IgG1.AA binding on NS0-hTIGIT cells were detected with PE-labeled goat anti-human IgG antibody in FACS Buffer. After incubation for 20 min and washing with FACS Buffer, the cells were subjected to flow cytometry using a FACScan flow cytometer (BD Biosciences, San Jose, Calif.) to obtain the mean channel fluorescence (MCF) at each antibody concentration. […] The EC₅₀ value was 60 ng/ml.

[4] = target: T4, HA-tagged human TIGIT, wild type, transiently expressed on CHO-K1 cells (human, UniProt Q495A1 22-244); test: flow cytometry on CHO-K1 cells transiently expressing HA-tagged human TIGIT; wild type TIGIT
T4 sequence: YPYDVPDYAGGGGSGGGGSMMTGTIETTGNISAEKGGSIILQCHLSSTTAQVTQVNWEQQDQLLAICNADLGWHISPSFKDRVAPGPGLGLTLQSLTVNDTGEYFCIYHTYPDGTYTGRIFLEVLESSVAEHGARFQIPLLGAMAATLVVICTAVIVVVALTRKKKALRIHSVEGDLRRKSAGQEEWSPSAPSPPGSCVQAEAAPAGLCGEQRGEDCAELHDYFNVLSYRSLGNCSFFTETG
Experimental: (§1) For flow cytometry analysis of the anti-hTIGIT antibody binding epitope, HA-tagged human TIGIT proteins with or without single amino acid mutation were transiently transfected into CHO-K1 cells. After 24 hr, transfected cells were suspended in HBSS buffer (Thermo Fisher Scientific, Cat#14175095), and incubated with HuTIG1-IgG1.AA antibody at varying concentrations in 50 μL volume. After 1 hr incubation at 4° C., cells were washed and a second incubation with 50 μL Alexa488 conjugated anti-human IgG(H+L) secondary antibody (Thermo Fisher Scientific, Cat#A-11013) was performed to detect cells bound by antibody. Cells were incubated with an anti-HA antibody (Sigma, Cat# H7411) as a positive control, and non-transfected CHO-K1 cells were used as a negative control. The cells were analyzed on an Attune NxT Cytometer (Thermo Fisher Scientific) and the data were processed using FlowJo software. For each mutant, the saturating antibody binding MFI (mean fluorescence intensity) were normalized to 100% POC (percent of control), and no primary antibody binding control MFI were normalized to 0% POC. Data were then fit to a four parameter non-linear sigmoidal curve using GraphPad Prism 7 curve fitting using following formula: Y=Bottom+(Top−Bottom)/(1+10^{((Log EC}^₅₀^{-X)*HillSlope)}). […]

[5] = target: T5, HA-tagged human TIGIT with mutation N49A, on CHO-K1 cells (human, UniProt Q495A1 22-244); test: flow cytometry on CHO-K1 cells transiently expressing HA-tagged TIGIT mutant; N49A mutant
T5 sequence: T4 sequence with N68A
Experimental: as §1

B1: HuTIG1-IgG1.AA (humanized IgG1/kappa form of TIG1, L234A/L235A) (antibody)
heavy: not shown
light: DIQMTQSPSSLSASVGDRVTITCRASKSISKYLAWYQQKPGKAPKLLIYSGSTLQSGVPSRFSGSGSGTDFTLTISSLQPEDFATYYCQQHNEYPWTFGGGTKVEIKRTVAAPSVFIFPPSDEQLKSGTASVVCLLNNFYPREAKVQWKVDNALQSGNSQESVTEQDSKDSTYSLSSTLTLSKADYEKHKVYACEVTHQGLSSPVTKSFNRGEC
notes: Mature full chains; also called humanized TIG1
Q: What does the source list for B1?
A: Kd [1]: 0.925 nM; koff [1]: 0.000409 s⁻¹; kon [1]: 442000 M⁻¹ s⁻¹; increase of K562 target cell killing by purified NK cells, 10 µg/ml antibody, relative to 'No Antibody' or Rituxan [2]: 28%; EC50 [3]: 0.06 µg/mL; EC50 [4]: 1.28 nM; EC50 [5]: 17.7 nM
